Measured values published in the domain aggregation screens of Martell et al. (2025).

Experiment: soluble fraction after stress (log2 fold change); higher = more stays soluble; pooled small domains, quantitative proteomics
Conditions: stress: pH 4
Method in brief: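 Aggregation propensity is estimated from the fold change in each domain's soluble amount after acid stress. Pooled small-domain libraries were stressed at pH 4, and higher log2 values mean more stayed soluble.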

Sequence | soluble fraction (log2)
HMGTSGLTIPRFVSLASGTVHMRAGPGVRYPITWIYKRLGTPLMVMAEHEFWRKVRDAEGTEGWMHRSLLS | -0.00785
HMGLNLIGLKRSGFAPEEVKAMTRAYMYIFKSAEGNFESRLAKAHEKYKDDALIMEMVEFIDDALKG | -0.227
HMGEVPVETKDGIKVHVHTVDKSQTAYGISRLYNITLNELYESNPEAKLELSIGQKLYFPVK | -0.426
HMDELNFGNFEGTRIFVQRTARKKSIALSIRDGTIVILAPRHIPNQEIQELITTNTDWIRAKLSQHAETKR | -0.264
HMTGSLLVEVQGRPDADRLLGQALVDAGLTARPAGGALIEVEVRDETTPDVVRDLTVDLGLGLVRMQERH | -1.01
HMRYTAAEMAKKLDISRSYLYYLKEAGVVEIEKNENGKPIWTESVYNQLFEYIKKNHRTEEADNTQ | -0.61
HMDRAIAAHLEARVRDALKQLSPEQTRVIELFFFDNKTHAEIENDLKIPLGTVKSRLRLALNKLRASL | -0.234
HMVITPESVKEQVLAIISKSPAQGFNYKQISKRLNINDPSERKMVSDILRELSESGTIEEINKGKYRAKV | -0.055
HMRLARPLTPTEERVLRLLASDMSNAKIGEVLGIRLPTVKSHVSHIMQKLGVTSRAKARTAAQQLGI | ≥ 0.43
HMDGTEVTTEPPGAQVEYEGKQFGPTPARIPGLVAGKSLHITLPGYLEVKPKIKAVPKDGEPLSFTLTAI | 0.224
HMRSFGRLRRRDSGRWEAAYVGPDARLYRAPATFEAKDDAIAWLSAERRMIELDTWIKPHDRASR | -0.000443
HMSKHLWNKVLPKVTTANITNLINQAIRKGEWRMDNKGVVHIIWRYRGKIIEVTGYLKDKVFNVGNAWVR | -0.134
HMPTANFPAMAEALKKQYGPPTGEEETSWTHRLGGVFDIKIQSWNTPQGEMVLRSRGAAMDAGML | 0.283
HMTAGYFTRGSHQDEVLRIQGTPSGVNKYSDHEVWNYGLSSVDISLRDRRVTEWNNISGNLKV | -0.35
HMAATVKVPDLTKMTPDEAQRALGQVGLKGKQGDDVDDDSVPVGYIAKQDEAPNSDAKAGDTITYHL | 0.171
HMDRPLRTKEHFARFAGEQVVVKTSSPIDGRSSFTGTLEGMEGDDVIVEVDGSRIAIGYSLIKRAHVVG | 0.406
HMSKNDLAGDEADVYKLLSVETGKPISDLVNRLPFGKSKTREILNTLAEKGFVYISGSGRGTKYHR | -0.403
HMGKSDEIFIQKSALYEELGQPDRALEMIYSALKSDSLNIDVLHRLVTLLINQNKNEDAILYNQKIID | -0.424
HMARTLSVTVSENYANMRLDSFLFESGLYPSRSKAVKQIESGKVFVNGNEPTKKTIVVANDFIVYEEYAEE | -1.15
HMYSDQRMEIFLEHLPDFIEQLSHKHVTRQMVWEDYRMIYPDGYGKSQFFFHLAQNLKAQKP | -0.489
HMEYNLTLEELNRDLYIRGEIWNVGDVVKTTDGDEGTIIRKGTNYVVFEDLRRVWLHNLEEVK | -1.64
HMNEYHRNISDEEFVRDIKETAIKLKKETLTGVEYSQNGKYHASTIIHRFGSWKKALELAELNTK | 0.257
HMPNYVEMLRLHEAGFSLRQIAKLVSSGRNTVTRTVNIAQEKELSYEEIAQWSSEELENMFKPD | -0.515
HMEVALEVPELRGLSMKQATNTLMASGFEVQKVGSGTIYAQFPLPGERLRTGYAVTIRGKTRDLG | 0.047
HMFIRINQTQNSPRKSVQIVESKRDGHKVRTKILRHVGIAMDDVELQKLKSLAQDIIAKMTVETENASKQ | 0.176
HMNEKLRNYIDTLFEHAPTTVRAVELKEEMFQNLTDKYNDLIAQGKSEEAAFNIAVASIGDVDSLIAGLS | -0.459

Sequence | soluble fraction (log2)
HMNKLIIDAAEDKIFFMIMNNDISYNISHENTKINFEKLIILINDFLSSKKLKINDITGLYV | -0.233
HMKTQFGTIVKQLRERKGMDQKQLGEIVGVSDKTVSSWEINRTEPKMGIVQQLADYFGVSTDYLIKG | 0.00995
HMSLTTKSVEETLGITRQTLHNWIKEGLLPAPKKDFRNWYIWSDEDLENLRNIIEQKTLINNKKQAV | -0.0603
HMVDVEMLTTVSDHIEAKLLQGILENHGIPSYSVDEESGEYMRVYMGYSIFGEKIYVRASDLLAAQGYL | -1.93
HMVQAQGARIREARVQRGLSQAQLGEPRYSGSYISHIENGRRSPGTDVLAFIAARLGLEPGALDS | -0.164
HMENINIRNMGIRAVEAAIISLSPDQRTFTWGATNKKLVTVPYEENPYSALAAFFKTDDGIEIYDAIEKRL | -0.881
HMLGARIAALRRQAGMNQGELAKKLGISPSTVGMYEQGRREPSAEMLVRLAEAFSVSTDFLLT | -0.0832
HMDVPTEEAILAYNNVPIELAAKFIGWSDITIRYALQEERAPFGMAAQNPKTGTWSYNISPGLLLKYKSGE | -0.39
HMGITMFGQNLKKLRTSKNLSQSKLSKILGISSSTIGMYEQGRRFPDQTILTKIADFFDVSTDYLLGR | 0.339
HMKTGIIYGVNGPVIYLKGDTGFKISEMVYVGPEKLVGEVIGLKKHMTTVQVFEETTGLKPGETVIGTGDA | -0.0122
HMAKTALEQAQAMVAAYVAAEQQILLGKEVRMGGPGIDRWLRFEDLQEVRAGRKEWESTVTRLQNTAA | -0.769
HMIIIPKKDYDVSQLDNLVSWLKDRGLEVHISRGENLTVIGLIGDTSKIDIDLIRSLDVVEEVKRIQ | -1.31
HMGRSYTIKSGDTLWAIATRYYGNGAQYSKIYNANKGTIESVAKSRGFRSSQNGHWIFPGTSITI | 0.056
HMSTDDILSSITALRLASVQFQLGQFDPALDSLKLVKEQAWSGAKNILAGDIQLAKGDKEAAKASYQQAQQ | -0.542
HMPIMDSDDKYEALGIPQEWIAVVKKAGYQTVEALKAVENPNKLHQELSVMNKKEKLGLAGLTPEMVKAWL | -0.301
HMAIGTDPETGISVVADGTDFIWTRSGATSTIFLRLDSENSYILNVKQGDFEVIDYELGEGQENAINIDQS | -0.463
HMEDLMEERKEHLLSVMKDPAYVPMKQKELAMLLNVPKGLREELNQVLDALVAEGSVVMSKRGKYTIPQ | 0.189
HMANKQLQEKLKNYISENGSLSSAAKAIGLSPATLSTYLKDKYEGNVANVETRLTEIFETVEAANNLL | -0.313
HMDIMNNILINRIKKILTEQNMSKADLSRLTGISNSSLSEYLNGKYEPKQDKIALIAKALHVSPAWLMGF | 0.166
HMKNSAAKETILAFLKKNGGELFTQMQIIEKFQKMIPAPVLRITLEELLNKGQVEITSKGKYYLSVKGS | -0.903
HMNVDIVEITKNSSPNQISKVIDIGAIQIVEDLMSFGIMKAIDTPLEDSEIEQLLEKYNLIVDLIE | -2.19
HMFMVAGHLSEKNGYFYAVINYNDSLGNRKTKWMSTGLTVKGNKKRAEAILAEKRRTFQPDEPV | 0.129
HMRHDSEGYYRLIGVPPDADDAELKEAAKKRLMEAHPDHGGSEDEFVEVYRAYRTLTDPSARAEYDARP | -0.133
HMDTPVYYYVNGNGVRMRKDASLESDILILLYKGTKVEYVDVKGEWIKVKYNNEIGYIRNDLLSAEMPD | -0.527
HMLTLEDMTRINSIISPRIKKGQSLYHIAKNNGDELNISESTLRRLVMTGEMDAGIIDLPQAVK | -0.333
HMIPSGISEHPISKLPLSMSIIHRLELAGIKTIGDITGENFSRLQEIPRIGKVTAKRILEAIQSYSEQLP | -0.273

Sequence | soluble fraction (log2)
HMVQLAEGERYRRIQEANDFINRQQWPGKAAMGRLKDTEKAQYNLWLDYLDALEAVDTSSAPKINWPVPPE | -0.156
HMLISKNLLGFTIKNTSGVTFGTLKDIMWLPSNDVYVIDNNGKEYLIPVISEIVKSINYDKGSITIFP | -0.398
HMTATIEEVNELTQSARVNINVPYAAKDEAKAYGAKWDDVERTWYTTGENYAQNKDFFDGFNPTAS | -0.132
HMHKLTSRQEEILQFIKDYLSEIGYPPTRSEIAQKMGFRSTNAAEEHLRALARKGAIEILPGPSRGLRLP | -0.393
HMFINTVELGRAIKRRREELGLSLRDVADVTNVSASTLSRIENGTGKPDADNIARLTGWLDMPIDRVM | 0.164
HMKIDEVSFAYIERTLFSMLGKLPTPVNKVIATIGEEKKETIWEVIRFLESENKLITNEDGTLQL | -1.77
HMGIKAADIVTNDIQFNTQAQFDKYKDLYPTLGWGNYDPNKTYTMQGFKNKLKPNELFTGTPNLKIEDT | -0.105
HMLAEEDRRRAERPGLDGNAVMVHLGIGPGRHVGEALAFLLEVRRSEGDLAVAELKSRIDAWWADR | -1.49
HMDDFPLKRGSKGNRVTLLQNALVKKYGAGILPKYGVDGMFGKEVEAALVHAKIPTTINEANYTKIV | 0.104
HMKIDANTFTSIEKQLFVLLSKTPTPMGSIFVALAKEDKEAVWEVIHFLEAENRLIMNEDGTIQL | -1.09
HMKGSYTVKSGDNLWSIARKFYGGSGSTWTKIYSANKSTIESTARRYGRSSSDNGHWIYPGTVLVIP | 0.405
HMTDIVPNLIGKSLKDAIQSVEKSNLKAIFDGHGIVVSQQPRPGSPIPARKIMKVTLSPDYR | 0.135
HMKNYALHEPMMDRIAKVNALYDAGHTIKYMTARGAVSMVDYYDLTKSQLDSWGAKYHELSVGK | 0.179
HMSFGYFQLRAKDPQKLKSVLEKIPQIQSIKEEKGDLIGYLNADMEAEELSQKLAAAKIFVTHMAKKK | 0.216
HMKVKGVYQLDNGYWGYRFTMLVNGKTVSQRRVKDESGNPFKTEKKAEKARLVAMAEEQTKANK | 0.125
HMQSRRTPASLVERVRQLNGQYQDKEIAELLNREGIKTAHGNEFNAKRIEMIRRHNGISKHSAQ | -0.0944
HMNNTIKFSVDIKNSGKRLDIFLSENVTQYTRSYLKRLIENSHVKLNNKILNSPSTKVKFQDQIIINNIE | 0.0707
HMNNQKATAVKVASGIVNLRSGPATSYETLDTVATGETLSVLAEKDGWFQVSRAGRTGWVAGWVVDVIRE | -0.586
HMDQPVIDVREFGARGDGKQDDAPAIQAAVRLAEQLGGGRVVVPATREFYLLGSTIRIRGHHVTLTGPGAR | 0.0605
HMDTRKEREIALYEAALRLIASGVNPAAMKVQQIADEAGIGKGTVYEYFASKEEILHGMALH | -0.36
HMHNQIGDKIRELRTRSNLTQADLGKLVGVSMQAVSKWERGGTPDIDVLLSVAKYFNISLDEMVGRT | -1.63
HMPLQLPEPMAELARNGETARLAEALKQGLDIDLRDGKGNTLLMIAAYQGRAETVAMLLKAGA | -1.42
HMAEATATVTASEMVVRSGPSSSYSVLGSLEKGTVVTVLAASDGIAKISYKGNTGYARIVDMELNSA | 0.37
HMTIDETKKQQVKDGLKDIPGVTVEFVGDKAVLKGAVTDANRVKIMQIVMAAKVLSDASGLTSK | 0.237
